The source of these data is patent publication US20200299384A1 (published 2020).

For test [1], the target named is T1, Cynomolgus Monkey CD3 epsilon protein (Cynomolgus monkey, UniProt Q95LI5 22-117).
T1 construct: Bought protein; also called Cyno-Monkey CD3epsilon
T1 sequence (looked up): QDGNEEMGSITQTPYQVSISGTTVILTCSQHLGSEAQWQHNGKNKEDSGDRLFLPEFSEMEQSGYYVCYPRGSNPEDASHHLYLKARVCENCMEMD
As to the kind of experiment: ELISA, antigen coated on plate. A general note: In an ELISA, binding on a coated surface is turned into a signal by an enzyme label.

For test [2], the target named is T2, Human CD3 epsilon (CD3epsilon) protein (His Tag) (human, UniProt P07766 23-126).
T2 construct: extracellular domain; Bought protein; also called recombinant human CD3epsilon ECD; not shown: His tag
Put plainly: ELISA, antigen coated on plate.

The target of test [3] is T3, Human CD3 delta (CD3 delta) protein (His Tag) (human, UniProt P04234 22-105).
T3 construct: extracellular domain; Bought protein; not shown: His tag
Put plainly: ELISA, antigen coated on plate.

Test [4] concerns the target T4, Human CD3 Gamma (CD3gamma) protein (human, UniProt P09693 23-116).
T4 construct: extracellular domain; Bought protein
As to the kind of experiment: ELISA, antigen coated on plate.

The target of test [5] is T3, Human CD3 delta (CD3 delta) protein …. Put plainly: ELISA, antigen coated on plate, HRP-labelled 2nd antibody. The protocol:
(§1) Human CD3epsilon, CD3delta and CD3gamma proteins were pre-coated in 96-well plates, respectively. The binding affinity of eight mAbs at various concentrations to these three different CD3 protein extracellular domain was detected by corresponding HRP labeled 2nd antibodies. The binding EC₅₀ (concentration of the test antibody when reaching half maximum binding) were analyzed by using GraphPad Prism software equation: Nonlinear regression (curve fit)—log (agonist) vs. response-Variable slope.

In test [6] the target is T4, Human CD3 Gamma (CD3gamma) protein. The test is described as above. The protocol:
as §1

For test [7], the target named is T2, Human CD3 epsilon (CD3epsilon) protein …. Described as above. The protocol: as §1
For test [8], the target named is T1, Cynomolgus Monkey CD3 epsilon protein. As to the kind of experiment: ELISA, antigen coated on plate. The source holds these as a separate data set.
For test [9], the target named is T2, Human CD3 epsilon (CD3epsilon) protein …. Put plainly: ELISA, antigen coated on plate. This is another data set of the same source.
In test [10] the target is T5, human CD3 expressed on cells (Jurkat cells; human CD4 T cells) (human, UniProt P07766 23-207).
T5 construct: whole, on cells; also called human CD3 receptor on T cell surface; human CD3 expressing cells (Jurkat cells)
Put plainly: flow cytometry on Jurkat cells. The protocol: Various concentrations of testing mAbs were added to Jurkat cells, and then the binding activity of mAbs onto the surface of cells was detected by 2nd antibody-FITC. OKT3 was used as the positive control. The stained cells were analyzed by using a BD Biosciences FACSCanto II instrument and Flow Jo Version software. The binding EC₅₀ were calculated by using GraphPad Prism software equation: Nonlinear regression (curve fit)—log (agonist) vs. response-Variable slope.

Test [11] has as its target T5, human CD3 expressed on cells (Jurkat …). Put plainly: flow cytometry on Jurkat cells, one site saturation fit. Also on record: Best fit-Bmax: unit not given here. (In general: In flow cytometry, cells or beads pass a laser one at a time.)
Test [12] has the same target. Put plainly: flow cytometry on human CD4 T cells.
For test [13] the target is unchanged. Put plainly: flow cytometry on Jurkat cells, one site saturation fit.
The target of test [14] is T1, Cynomolgus Monkey CD3 epsilon protein. Put plainly: ELISA, antigen coated on plate. The source holds these as a separate data set.

Where two headings read alike, the source gives them in different places.

T4 sequence (P09693 23-116): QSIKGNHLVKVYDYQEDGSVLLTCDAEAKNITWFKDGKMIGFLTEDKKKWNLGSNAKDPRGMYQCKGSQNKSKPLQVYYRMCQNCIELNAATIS
T2 sequence (P07766 23-126): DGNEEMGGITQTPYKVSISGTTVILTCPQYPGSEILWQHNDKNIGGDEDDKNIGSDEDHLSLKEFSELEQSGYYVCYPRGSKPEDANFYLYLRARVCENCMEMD
T5 sequence (P07766 23-207): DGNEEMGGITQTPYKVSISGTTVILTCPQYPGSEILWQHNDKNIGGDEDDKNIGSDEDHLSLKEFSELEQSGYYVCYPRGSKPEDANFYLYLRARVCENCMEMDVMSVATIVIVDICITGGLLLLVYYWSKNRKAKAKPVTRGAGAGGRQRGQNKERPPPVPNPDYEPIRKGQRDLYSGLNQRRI
T3 sequence (P04234 22-105, stated change not applied): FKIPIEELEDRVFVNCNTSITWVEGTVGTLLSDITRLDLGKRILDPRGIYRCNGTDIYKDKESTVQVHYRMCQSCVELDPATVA

B1: WBP3311_2.400.5 (antibody, V domains shown)
VH: QVQLQQSGPELVNPGASVKISCKASGYSFTNYYLHWVKQRPGQGLEWIGWIFPESDNTKYNEKLKGKATLTADTSSDTAYMHLSSLTFEDSAVYFCARDSVGNYFFDFWGQGTTLTVSS
VL: DIVMSQSPSSLAVSAGEKVTMRCKSSQSLVNNRTRKNYLAWYQQKPGQPPKLLIYWASTRESGVPDRFTGSGSGTDFTLTISSVQAEDLAVYYCAQSFILRTFGGGTKLEIK
notes: Mouse monoclonal antibody from hybridoma; also called W3311-2.400.5
Regarding B1, the “ELISA (A450)” value in [1] came to 2.79 A450; in [2], 2.83 A450; in test [5], 0.05 A450; in [6], 0.05 A450; in test [7], 1.57 A450. For the same molecule, the binding result in [3] and in test [4] was “no binding” in each case. Besides, the results for the EC50 in [8], in test [9] and in test [10] were 24 pM, 53 pM and 2500 pM, respectively. In addition, in test [10], the “MFI (FACS)” value amounted to 2740 MFI. Besides, the “Best fit-Bmax” value in test [11] is 1.13e-10. Besides, the Kd in test [11] was 934 pM.

B2: WBP3311_2.482.5 (antibody, V domains shown)
VH: QVQLQQSGPELVKPGSSVKISCKPSGYTFTTYYIHWVKQRPGQGLEWIGWIFPGSDNIKYNENFKDKATLTADTSSSTAYMQLSSLTSEDSAVYFCARDSVSRYYFDYWGQGTILTVSS
VL: DIVMSQSPSSLAVSAGEKVTMSCKSSQSLVNDRTRKNYLAWYQQKPGLSPKLLIYWASTRESGVPDRFTGSGSGTDFTLTISSVQAEDLAVYYCAQSFILRTFGGGTKLEIK
notes: Mouse monoclonal antibody from hybridoma; also called W3311-2.482.5
For B2, the “ELISA (A450)” value in test [1] was 2.87 A450; in test [2], 2.95 A450; in [5], 0.05 A450; in test [6] it was 0.06 A450; in test [7] it was 1.33 A450. For the same molecule, the binding result in [3] and in [4] was “no binding” throughout. For the same molecule, the half-maximal effective concentration (EC50) in test [8] was 28 pM; in test [9], 69 pM; in [10] it was 3710 pM. In addition, the “MFI (FACS)” value in test [10] was found to be 2390 MFI. Also, the “Best fit-Bmax” value in test [11] was 1.3e-10. This molecule yielded a Kd in [11] of 2290 pM.

B3: WBP3311_2.306.4 (antibody, IgG2b, V domains shown)
VH: QVQLQQSGPELVKPGASVRISCKASGFAFTDYYIHWVKQRPGQGLEWIGWISPGNVNTKYNENFKGRATLTADLSSSTAYMQLSSLTSEDSAVYFCARDGYSLYYFDYWGQGTTLTVSS
VL: DIVMSQSPSSLTVSAGEKVTMSCKSSQSLLNSRTRKNYLAWYQQKPGQSPKLLIYWASTRQSGVPDRFTGSGSGTAFTLTISGVQAEDLAVYFCTQSHTLRTFGGGTKLEIK
notes: Mouse monoclonal antibody from hybridoma; also called W3311-2.306.4; W3311-2.306.4-mIgG2bK
Regarding B3, the “ELISA (A450)” value turned out to be 2.82 A450 in test [1]; 2.91 A450 in test [2]; 0.05 A450 in [5]; 0.06 A450 in test [6]; 1.46 A450 in [7]. For the same molecule, the binding result in test [3] and in [4] was “no binding” in each case. For the same molecule, the EC50 in test [8] was found to be 11 pM; in [9] it was 12 pM; in test [12] it was 461 pM; in test [10], 570 pM. For the same molecule, the “MFI (FACS)” value in [10] was found to be 3360 MFI. For the same molecule, the “Best fit-Bmax” value in test [11] was found to be 1.17e-10. Moreover, the dissociation constant (Kd) in test [11] amounted to 191 pM.

B4: WBP3311_2.383.47 (antibody, V domains shown)
VH: QVQLQQSGPELVKPGASVRISCKTSGFTFTNYYIHWVIQRPGQGLEWIGWISPENGNTKYNENFQDKATLTADISSSTAYMHLSSLTSEDSAVYFCARDGYSLYYFDYWGQGTTLTVSS
VL: DIVMSQSPSSLTVSAGEKVTMSCKSSQSLLNSRTRKNYLAWYQQKPGQSPKLLIYWASIRVSGVPDRFTGSGSGTTFTLTISGVQAEDLAVYYCTQSHTLRTFGGGTKLEIK
notes: Mouse monoclonal antibody from hybridoma
With B4, the “ELISA (A450)” value stood at 2.76 A450 in [1]; 2.79 A450 in test [2]; 0.05 A450 in test [5]; 0.05 A450 in test [6]; 1.61 A450 in test [7]. Moreover, the binding result in test [3] and in test [4] was “no binding” throughout. For the same molecule, the EC50 in test [8] was 28 pM; in test [9], 74 pM; in [10], 910 pM. The “MFI (FACS)” value in [10] worked out at 2130 MFI. For the same molecule, in test [11], the “Best fit-Bmax” value came out at 1.12e-10. The molecule further registered an equilibrium dissociation constant (Kd) in [11] of 403 pM.

B5: WBP331_2.488.33 (antibody, V domains shown)
VH: QVQLQQSGPELVKPGTSVKISCKASGFSFTNYYIHWVKQRPGQGPEWIGWIFPGTVNTKYNEKFKGKATLTADTSSNTAFMQLSSLTSADSAVYFCARDSVGIYYFDFWGLGTTLTVSS
VL: DIVMSQSPSSLAVSAGEKVTVSCKSSQSLLNNRTRKNYLAWYQQKPGQSPKLLIYWASTRESGVPDRFTGSGSGTDFTLTISSVQAEDLAVYYCTQSFILRTFGGGTKLEIK
notes: Mouse monoclonal antibody from hybridoma; also called WBP3311_2.488.33; W3311-2.488.33
Take B5: the “ELISA (A450)” value turned out to be 2.83 A450 in [1]; 2.91 A450 in test [2]; 0.05 A450 in test [5]; 0.06 A450 in test [6]; 1.7 A450 in test [7]. Moreover, the binding result in test [3] and in [4] was “no binding” throughout. Moreover, the EC50 in test [8] worked out at 19 pM; in [9], 26 pM; in test [10] it was 2970 pM. Besides, the “MFI (FACS)” value in test [10] was 2270 MFI. Further, in [11], the “Best fit-Bmax” value came to 1.3e-10. The molecule further showed a Kd in test [11] of 1320 pM.

B6: WBP3311_2.844.8 (antibody, V domains shown)
VH: QVQLQQSGPELVKPGASVRISCKASGFAFTDYYIHWVKQRPGQGLEWIGWISPGNVNTKYNENFKGRATLTADLSSSTAYMQLSSLTSEDSAVYFCARDGYSLYYFDYWGQGTTLTVSS
VL: DIVMSQSPSSLTVSAGEKVTMSCKSSQSLLNSRTRKNYLAWYQQKPGQSPKLLIYWASTRESGVPDRFTGSGSGTAFTLTISGVQAEDLAVYFCTQSHTLRTFGGGTKLEIK
notes: Mouse monoclonal antibody from hybridoma; also called W3311-2.844.8; clone 2.844.8
Consider B6, for which the “ELISA (A450)” value amounted to 2.75 A450 in test [1]; 2.92 A450 in [2]; 0.06 A450 in [5]; 0.07 A450 in [6]; 1.54 A450 in test [7]. Further, the binding result in [3] and in [4] was “no binding” throughout. Further, the EC50 in test [8] came to 9 pM; in [9], 11 pM; in test [10], 770 pM. Further, the “MFI (FACS)” value in [10] came to 984 MFI. Moreover, the “Best fit-Bmax” value in test [11] worked out at 1.19e-10. For the same molecule, the Kd in test [11] amounted to 252 pM.

B7: WBP3311_2.166.48-z1-uIgG1K (antibody, V domains shown)
VH: QVQLVQSGAEVKKPGSSVKVSCKASGYSFTTYYIHWVRQAPGQGLEWMGWIFPGNDNIKYSEKFKGRVTITADKSTSTAYMELSSLRSEDTAVYYCAIDSVSIYYFDYWGQGTLVTVSS
VL: DIVMTQSPDSLAVSLGERATINCKSSQSLLNSRTRKNYLAWYQQKPGQPPKLLIYWASTRKSGVPDRFSGSGSGTDFTLTISSLQAEDVAVYYCTQSFILRTFGGGTKVEIK
notes: Humanized antibody; uIgG1K means human IgG1 constant region and kappa light chain; expressed in 293F cells; also called W3311-2.166.48-z1-uIgG1K
As to B7, the EC50 is 1010 pM in test [12] and 43 pM in [14]. For the same molecule, binding in test [13] was characterised by a dissociation constant (Kd) of 201 pM.

B8: WBP3311_2.306.4-z1-uIgG1K (antibody, V domains shown)
VH: QVQLVQSGAEVKKPGSSVKVSCKASGFAFTDYYIHWVRQAPGQGLEWMGWISPGNVNTKYNENFKGRVTITADKSTSTAYMELSSLRSEDTAVYYCARDGYSLYYFDYWGQGTLVTVSS
VL: DIVMTQSPDSLAVSLGERATINCKSSQSLLNSRTRKNYLAWYQQKPGQPPKLLIYWASTRQSGVPDRFSGSGSGTDFTLTISSLQAEDVAVYYCTQSHTLRTFGGGTKVEIK
notes: Humanized antibody; uIgG1K means human IgG1 constant region and kappa light chain; expressed in 293F cells; also called W3311-2.306.4-z1-uIgG1K
Regarding B8, the EC50 in [12] amounted to 253 pM; in test [14] it was 43 pM. Binding in test [13] was characterised by a dissociation constant (Kd) of 53 pM.

By EC50 is commonly meant the concentration at which the effect is half-maximal. In general, Kd refers to a measure of binding affinity in units of concentration.
